Key:
[1] = target: T1, recombinant human BMP-6 (R&D Systems) (human, UniProt P22004 382-513, limits assumed); assay: pull-down on Talon metal affinity resin with immobilised His-hCHL2, immunoblot with anti-BMP-6 antibody
T1 construct: Bought reagent
T1 sequence (looked up): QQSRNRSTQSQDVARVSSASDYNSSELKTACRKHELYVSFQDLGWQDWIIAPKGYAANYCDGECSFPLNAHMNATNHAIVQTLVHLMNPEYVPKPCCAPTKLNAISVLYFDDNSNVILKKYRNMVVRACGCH
Text: (§1) Protein binding assays with His-tagged hCHL2 protein Culture media of COS7 cells, transfected with hCHL2 cloned in pcDNA4/His, or empty vector (see above), were collected every 24 hrs, beginning at 48 hrs after transfection for a total of 96 hrs, and concentrated 10-fold by ultrafiltration through a YM Millipore membrane under nitrogen pressure (Millipore, Bedford, Mass.) before binding of secreted His-tagged hCHL2 to BD TALONTM Metal Affinity Resin (Clontech, Palo Alto, Calif.). The resin was added to the concentrated medium, rotated for 30 min at room temperature, and then washed twice with loading buffer (50 mM NaH₂PO₄, pH 8, 300 mM NaCl, 5 mM imidazole) and resuspended in 200 μl of binding buffer (1 mM CaCl₂, 3 mM MgCl₂, 0.2% NP-40, 1 mg/ml BSA in PBS). The His-hCHL2, immobilized on the resin, was incubated with 200 ng of recombinant human BMP-2, -4, -6 or Activin A (all purchased from R&D Systems), while rotating for 1 hr at room temperature, and then washed once with binding buffer and twice with binding buffer supplemented with 0.2% Tween. […]
(§2) COS-7 cells were transfected with a pcDNA4 (Invitrogen, Carlsbad, Calif.) vector expressing His-tagged hCHL2 (coding region corresponding to variant II, SEQ ID NO:6), and the culture media were collected for 72 hrs. […] No interaction was detected with any of the other proteins tested (BMP-2, 4, or 6).

[2] = target: T2, recombinant human BMP-2 (R&D Systems) (human, UniProt P12643 283-396); assay: pull-down on Talon metal affinity resin with immobilised His-hCHL2, immunoblot with anti-BMP2/4 antibody
T2 construct: Bought reagent
Text: as §1, §2

[3] = target: T3, recombinant human BMP-4 (R&D Systems) (human, UniProt P12644 293-408); assay: as above
T3 construct: Bought reagent
T3 sequence (looked up): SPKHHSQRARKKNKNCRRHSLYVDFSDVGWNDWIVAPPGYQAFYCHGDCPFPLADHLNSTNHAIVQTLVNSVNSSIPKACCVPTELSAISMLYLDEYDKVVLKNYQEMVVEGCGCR
Text: as §1, §2

T2 sequence (P12643 283-396 limits assumed): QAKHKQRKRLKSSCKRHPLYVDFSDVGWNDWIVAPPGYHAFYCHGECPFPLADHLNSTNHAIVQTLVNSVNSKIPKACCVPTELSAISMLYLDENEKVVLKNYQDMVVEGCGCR

binding result [1]: no binding (tested: 200 ng)
binding result [2]: no binding (tested: 200 ng)
binding result [3]: no binding (tested: 200 ng)
B1: His-tagged hCHL2 (variant II), secreted from COS-7 cells transfected with pcDNA4/myc-His-hCHL2 (other, not shown: small tags and cut ends)
chain: RARPDMFCLFHGKRYSPGESWHPYLEPQGLMYCLRCTCSEGAHVSCYRLHCPPVHCPQPVTEPQQCCPKCVEPHTPSGLRAPPKSCQHNGTMYQHGEIFSAHELFPSRLPNQCVLCSCTEGQIYCGLTTCPEPGCPAPLPLPDSCCQACKDEASEQSDEEDRVQSLHGVRHPQDPCSSDAGRKRGPGTPAPTGLSAPLSFIPRHFIPKGAGSTTVKIVLKEKHKKACVHGGKTYSHGEVWHPAFRAFGPLPCILCTCEDGRQDCQRVTCPTEYPCRHPEKVAGKCCKICPEDKADPGHSEISSTRCPKAPGRVLVHTSVSPSPDNLRRFALEHEASDLVEIYLWKLVKDEETEAQRGEVPGPRPHSQNLPLDSDQESQEARLPERGTALPTARWPPRRSLERLPSPDPGAEGHGQSRQSDQDITKT
notes: also called His-tagged hCHL2 protein

Source: patent publication US20050118615A1 (COMPUGEN, published 2005)
